{"source": "patent US9222143", "target": "CD11b/CD18 receptor on J774A.1 murine monocytes/macrophages (murine) (UniProt P05555)", "assay": "cell-based or functional assay"}
{"substance": "CyaA/233OVA/K860R/AC- (from UniProt J7QLC0 1-1706)", "values": [{"measurement": "Lysis of J774A.1 cells (% of AC-)", "value": "72 % of AC-"}]}
